Like-named read-outs stand apart in the source and are kept apart here. Peptide text beside a SMILES is read from it. * marks the point of attachment. DOTA = O=C(O)CN1CCN(CC(=O)O)CCN(CC(=O)*)CCN(CC(=O)O)CC1
Assay: Biodistribution experiments in normal mice
Format: in vivo, ddY mice
Settings: for F/B ratio (Femur:blood ratio) / tissue uptake dose at 1 h / tissue uptake dose at 3 h / tissue uptake dose at 10 min: male ddY mice, no pretreatment, mean (SD) for four or five animals; for tissue uptake dose at 1 h / tissue uptake dose at 3 h / tissue uptake dose at 10 min: mouse, in vivo, iv, 37 kBq/100 uL, total radioactivity
Procedure: Experiments with animals were conducted in strict accordance with the Guidelines for the Care and Use of Laboratory Animals of Kanazawa University. The animal experimental protocols used were approved by the Committee on Animal Experimentation of Kanazawa University (Permit Number: AP-132633). Biodistribution experiments were performed after an intravenous administration of each diluted tracer solution (37 kBq/100 µL) to 6-week-old male ddY mice (27–32 g, Japan SLC, Inc., Hamamatsu, Japan). To investigate the effect of an excess amount of bisphosphonate on biodistribution, alendronate (20 mg/kg) was intravenously administered to mice 1 minute before the intravenous injection of ^67Ga-DOTA-(Asp)14 or ^67Ga-DOTA-Bn-SCN-HBP. Four to six mice each were sacrificed by decapitation at 10, 60, and 180 minutes post-injection. Tissues of interest were removed and weighed. Complete left femurs were isolated as representative bone samples, radioactivity was determined using an auto well gamma counter, and counts were corrected for background radiation and physical decay during counting.

For `O=C(O)C[C@H](NC(=O)[C@H](CC(=O)O)NC(=O)[C@H](CC(=O)O)NC(=O)[C@H](CC(=O)O)NC(=O)[C@H](CC(=O)O)NC(=O)[C@H](CC(=O)O)NC(=O)[C@H](CC(=O)O)NC(=O)[C@H](CC(=O)O)NC(=O)[C@H](CC(=O)O)NC(=O)[C@H](CC(=O)O)NC(=O)[C@H](CC(=O)O)NC(=O)CN1CCN(CC(=O)O)CCN(CC(=O)O)CCN(CC(=O)O)CC1)C(=O)O` [67Ga-DOTA-(Asp)11, metal not drawn] ({DOTA}-DDDDDDDDDDD-OH), the “F/B ratio (Femur:blood ratio)” value (10 min after i.v. administration) was 8.71 (0.73), the “F/B ratio (Femur:blood ratio)” value (60 min after i.v. administration) was 156.07 (45.00) and the “F/B ratio (Femur:blood ratio)” value (180 min after i.v. administration) was 501.32 (156.89). For the same molecule, the tissue uptake dose at 1 h (male, ddY, Blood, 60 min after i.v. administration, read-out: Radioactivity in Blood) was 0.11 %ID, the tissue uptake dose at 3 h (male, ddY, Blood, 180 min after i.v. administration, read-out: Radioactivity in Blood) was 0.03 %ID and the tissue uptake dose at 10 min (male, ddY, Bone (complete left femur), 10 min after i.v. administration, read-out: Radioactivity in Bone (Femur)) was 13.1 %ID. The tissue uptake dose at 1 h (male, ddY, Bone (complete left femur), 60 min after i.v. administration, read-out: Radioactivity in Bone (Femur)) was 16.3 %ID, the tissue uptake dose at 3 h (male, ddY, Bone (complete left femur), 180 min after i.v. administration, read-out: Radioactivity in Bone (Femur)) was 13.9 %ID and the tissue uptake dose at 10 min (male, ddY, Brain, 10 min after i.v. administration, read-out: Radioactivity in Brain) was 0.05 %ID. The tissue uptake dose at 1 h (male, ddY, Brain, 60 min after i.v. administration, read-out: Radioactivity in Brain) was 0.02 %ID, the tissue uptake dose at 3 h (male, ddY, Brain, 180 min after i.v. administration, read-out: Radioactivity in Brain) was 0.01 %ID and the tissue uptake dose at 10 min (male, ddY, Heart, 10 min after i.v. administration, read-out: Radioactivity in Heart) was 0.55 %ID. The tissue uptake dose at 1 h (male, ddY, Heart, 60 min after i.v. administration, read-out: Radioactivity in Heart) was 0.08 %ID, the tissue uptake dose at 3 h (male, ddY, Heart, 180 min after i.v. administration, read-out: Radioactivity in Heart) was 0.02 %ID and the tissue uptake dose at 10 min (male, ddY, Kidney, 10 min after i.v. administration, read-out: Radioactivity in Kidney) was 16 %ID. It also gave a tissue uptake dose at 1 h (male, ddY, Kidney, 60 min after i.v. administration, read-out: Radioactivity in Kidney) of 1.76 %ID, a tissue uptake dose at 3 h (male, ddY, Kidney, 180 min after i.v. administration, read-out: Radioactivity in Kidney) of 0.8 %ID and a tissue uptake dose at 10 min (male, ddY, Large-intestine, 10 min after i.v. administration, read-out: Radioactivity in Large-intestine) of 0.27 %ID. The tissue uptake dose at 1 h (male, ddY, Large-intestine, 60 min after i.v. administration, read-out: Radioactivity in Large-intestine) was 0.06 %ID, the tissue uptake dose at 3 h (male, ddY, Large-intestine, 180 min after i.v. administration, read-out: Radioactivity in Large-intestine) was 0.13 %ID and the tissue uptake dose at 10 min (male, ddY, Liver, 10 min after i.v. administration, read-out: Radioactivity in Liver) was 0.44 %ID. The tissue uptake dose at 1 h (male, ddY, Liver, 60 min after i.v. administration, read-out: Radioactivity in Liver) was 0.07 %ID, the tissue uptake dose at 3 h (male, ddY, Liver, 180 min after i.v. administration, read-out: Radioactivity in Liver) was 0.05 %ID and the tissue uptake dose at 10 min (male, ddY, Lung, 10 min after i.v. administration, read-out: Radioactivity in Lung) was 1.11 %ID. It also gave a tissue uptake dose at 1 h (male, ddY, Lung, 60 min after i.v. administration, read-out: Radioactivity in Lung) of 0.12 %ID, a tissue uptake dose at 3 h (male, ddY, Lung, 180 min after i.v. administration, read-out: Radioactivity in Lung) of 0.04 %ID and a tissue uptake dose at 10 min (male, ddY, Muscle, 10 min after i.v. administration, read-out: Radioactivity in Muscle) of 0.48 %ID. The tissue uptake dose at 1 h (male, ddY, Muscle, 60 min after i.v. administration, read-out: Radioactivity in Muscle) was 0.13 %ID, the tissue uptake dose at 3 h (male, ddY, Muscle, 180 min after i.v. administration, read-out: Radioactivity in Muscle) was 0.08 %ID and the tissue uptake dose at 10 min (male, ddY, Pancreas, 10 min after i.v. administration, read-out: Radioactivity in Pancreas) was 0.62 %ID. For the same molecule, the tissue uptake dose at 1 h (male, ddY, Pancreas, 60 min after i.v. administration, read-out: Radioactivity in Pancreas) was 0.07 %ID, the tissue uptake dose at 3 h (male, ddY, Pancreas, 180 min after i.v. administration, read-out: Radioactivity in Pancreas) was 0.05 %ID and the tissue uptake dose at 10 min (male, ddY, Small-intestine, 10 min after i.v. administration, read-out: Radioactivity in Small-intestine) was 0.41 %ID. For the same molecule, the tissue uptake dose at 1 h (male, ddY, Small-intestine, 60 min after i.v. administration, read-out: Radioactivity in Small-intestine) was 0.27 %ID, the tissue uptake dose at 3 h (male, ddY, Small-intestine, 180 min after i.v. administration, read-out: Radioactivity in Small-intestine) was 0.05 %ID and the tissue uptake dose at 10 min (male, ddY, Spleen, 10 min after i.v. administration, read-out: Radioactivity in Spleen) was 0.31 %ID. The tissue uptake dose at 1 h (male, ddY, Spleen, 60 min after i.v. administration, read-out: Radioactivity in Spleen) was 0.09 %ID, the tissue uptake dose at 3 h (male, ddY, Spleen, 180 min after i.v. administration, read-out: Radioactivity in Spleen) was 0.04 %ID and the tissue uptake dose at 10 min (male, ddY, Stomach (footnote b), 10 min after i.v. administration, read-out: Radioactivity in Stomach) was 0.21 %ID. It also gave a tissue uptake dose at 1 h (male, ddY, Stomach (footnote b), 60 min after i.v. administration, read-out: Radioactivity in Stomach) of 0.18 %ID, a tissue uptake dose at 3 h (male, ddY, Stomach (footnote b), 180 min after i.v. administration, read-out: Radioactivity in Stomach) of 0.04 %ID and a tissue uptake dose at 10 min (Blood, 10 min after i.v. administration (37 kBq/100 µL), gamma counter, read-out: Radioactivity in Blood) of 1.51 %ID. For the same molecule, the “accumulation of radioactivity in the femur (in words)” value (normal mice, i.v.) was “higher accumulation”.
